# Numbering of substitutions follows the chain as printed.
# T1: interleukin 4 (IL4) (UniProt P05112 25-153)
# T1 sequence (looked up): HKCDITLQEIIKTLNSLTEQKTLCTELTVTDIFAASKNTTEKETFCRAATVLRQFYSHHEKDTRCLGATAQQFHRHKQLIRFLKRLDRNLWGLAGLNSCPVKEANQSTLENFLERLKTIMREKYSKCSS
# T2: interleukin 5 (IL5) (human, UniProt P05113 20-134)
# T2 construct: also called human IL5 (R&D Systems)
# T2 sequence (looked up): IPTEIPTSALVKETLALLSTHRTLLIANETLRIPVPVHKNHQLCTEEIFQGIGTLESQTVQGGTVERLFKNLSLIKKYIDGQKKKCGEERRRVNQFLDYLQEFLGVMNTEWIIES
# B1: humanized antibody 19C11 (hu19C11) wild-type Fab displayed on M13 phage (Fab, V domains shown)
# VH: EVQLVQSGAEVKKPGASVKVSCKASGYTFTDYSMHWVRQAPGQGLEWIVWINTETGEPTYADDFKGRVTITRDTSTSTAYLELSSLRSEDTAVYYCARGGIFYGMDYWGQGTLVTVSS
# VL: DIQMTQSPSSLSASVGDRVTITCKASQSVINDAAWYQQKPGKAPKLLIYYTSHRYTGVPSRFSGSGSGTDFTLTISSLQEDFATYYCQQDYTSPWTFGQGTKVEIKR
# notes: Phagemid pV0115: light chain with gD expression tag fused to its C-terminus; VH-CH1 followed by hinge piece KTHTC and M13 minor coat protein p3 (bivalent Fab display); Humanized in germline VH1 / kappa I backbone; also called hu19C11 wt; Fab-displaying phage
# B2: E7 purified as Fab (Fab, V domains shown)
# VH: EVQLVQSGAEVKKPGASVKVSCKASGYTFTDYFIHWVRQAPGQGLEWIAGIVYDATGFTTYADDFKGRVTITRDTSTSTAYLELSSLRSEDTAVYYCARGGIFYGMDYWGQGTLVTVSS
# VL: B1 VL
# notes: also called IL4/IL5 dual specific clone E7
# B3: 1C36, affinity-matured variant of E7, as IgG (antibody, V domains shown)
# VH: B2 VH with A49G, D63E, D64E
# VL: B1 VL with S93H
# B4: 5A, anti-IL5 specific variant of hu19C11, Fab displayed on phage (Fab, V domains shown)
# VH: B1 VH with S33D, M34I, G99E, G100I, I101L
# VL: B1 VL
# notes: also called clone 5A
# B5: 5A as human IgG1 (antibody, V domains shown)
# VH: B1 VH with S33D, M34I, G99E, G100I, I101L
# VL: B1 VL
# B6: 1C60, affinity-matured variant of E7, as IgG (antibody, V domains shown)
# VH: B2 VH with T60V
# VL: B1 VL with T92K, S93H
# Columns and labels:
# [1] = target: T1, interleukin 4 (IL4); assay: phage ELISA, Fab-displaying phage on IL4
# From the text: Anti-gD antibody was directly coated on ELISA wells, whereas IL4 was captured with a non-blocking anti-IL4 antibody coated on ELISA wells.
# [2] = target: T1, interleukin 4 (IL4); assay: phage competition ELISA: Fab-phage incubated 2 h with serial dilutions of the antigen in solution, unbound phage captured on antigen-coated wells, anti-M13-HRP; IC50 = antigen concentration inhibiting 50% of phage binding
# Procedure: (§1) Fab displaying phage was first incubated with serial dilutions of the respective antigens in solution for 2 h, unbound phage was then briefly captured by antigen coated ELISA wells and detected with anti-M13 HRP conjugate. The concentration of antigen inhibiting 50% of phage binding to antigen coated well is calculated as IC₅₀. NB denotes no detectable binding of phage clone directly to the antigens coated wells.
# [3] = target: T2, interleukin 5 (IL5); assay: phage ELISA: direct binding of the phage clone to antigen-coated wells (NB = no detectable binding)
# [4] = target: T3, interleukin 13 (IL13) (UniProt P35225 35-146, limits assumed); assay: as above
# T3 sequence (P35225 35-146 limits assumed): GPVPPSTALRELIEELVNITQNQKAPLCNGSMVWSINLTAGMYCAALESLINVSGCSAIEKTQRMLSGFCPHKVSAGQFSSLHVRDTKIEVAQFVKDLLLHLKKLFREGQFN
# [5] = target: T2, interleukin 5 (IL5); assay: SPR (Biacore), Fab over immobilized human IL5, 25 °C
# [6] = target: T4, HER2 ECD; assay: ELISA: IgG at 100 nM on immobilized protein, anti-IgG-HRP [panel A]
# T4 construct: one of the irrelevant proteins; also called irrelevant protein coated on ELISA wells
# [7] = target: T5, BSA (bovine, UniProt P02769); assay: as above
# T5 construct: negative control protein; also called irrelevant protein coated on ELISA wells
# T5 sequence (P02769 25-607 limits assumed): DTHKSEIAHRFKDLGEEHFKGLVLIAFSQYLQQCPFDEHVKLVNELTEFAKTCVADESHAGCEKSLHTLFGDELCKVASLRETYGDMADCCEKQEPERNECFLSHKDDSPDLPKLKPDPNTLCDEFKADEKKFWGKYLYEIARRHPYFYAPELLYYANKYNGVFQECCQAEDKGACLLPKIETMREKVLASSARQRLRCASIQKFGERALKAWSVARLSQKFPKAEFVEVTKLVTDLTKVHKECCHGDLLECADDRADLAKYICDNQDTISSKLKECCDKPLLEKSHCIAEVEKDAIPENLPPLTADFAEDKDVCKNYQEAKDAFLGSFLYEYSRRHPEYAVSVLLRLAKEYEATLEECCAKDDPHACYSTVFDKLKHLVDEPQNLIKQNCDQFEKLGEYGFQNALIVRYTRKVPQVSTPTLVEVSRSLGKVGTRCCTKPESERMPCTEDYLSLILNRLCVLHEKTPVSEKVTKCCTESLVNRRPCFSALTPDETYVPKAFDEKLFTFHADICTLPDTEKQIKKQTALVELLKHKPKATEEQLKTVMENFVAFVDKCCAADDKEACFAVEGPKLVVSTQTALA
# [8] = target: T2, interleukin 5 (IL5); assay: phage competition ELISA: Fab-phage incubated 2 h with serial dilutions of the antigen in solution, unbound phage captured on antigen-coated wells, anti-M13-HRP; IC50 = antigen concentration inhibiting 50% of phage binding
# Procedure: as §1
# [9] = target: T1, interleukin 4 (IL4); assay: phage ELISA: direct binding of the phage clone to antigen-coated wells (NB = no detectable binding)
# [10] = target: T4, HER2 ECD; assay: ELISA: human IgG1 at 250 nM on protein-coated wells, anti-Fc-HRP
# [11] = target: T1, interleukin 4 (IL4); assay: as above
# [12] = target: T3, interleukin 13 (IL13); assay: as above
# [13] = target: T5, BSA; assay: as above
binder,measurement,setting,value
B1,EC50,[1],1 nM
same,IC50,[2],1.1 nM
same,binding result,[3],no binding
same,binding result,[4],no binding
B2,Kd,[5],905 nM
B3,binding result,[6],no binding (tested: 100 nM)
same,binding result,[7],no binding (tested: 100 nM)
B4,IC50,[8],~1000 nM
same,binding result,[9],no binding
same,binding result,[4],no binding
B5,binding result,[10],no binding (tested: 250 nM)
same,binding result,[11],no binding (tested: 250 nM)
same,binding result,[12],no binding (tested: 250 nM)
same,binding result,[13],no binding (tested: 250 nM)
B6,binding result,[6],no binding (tested: 100 nM)
same,binding result,[7],no binding (tested: 100 nM)

# — patent publication US20160257744A1 (Genentech, published 2016)
